The record followed here is the supplement of paper PMC7877785.

± gives the uncertainty stated by the source.

This data set in a line: self-splicing fitness, log relative to wild type (ln ratio); higher = more splicing; Tetrahymena group I intron in knt gene, E. coli kanamycin selection, DiMSum; sequences stand for … in CUCUCU…GGAGGGAAAAGUUAUCAGGCAUGCACCUGGUAGCUAGUCUUUAAACCAAUAGAUUGCAUCGGUUUAAAAGGCAAGACCGUCAAAUUGCGGGAAAGGGGUCAACAGCCGUUCAGUACCAAGUCUCAGGGGAAACUUUGAGAUGGCCUUGCAAAGGGUAUGGUAAUAAGCUGACGGACAUGGUCCUAACCACGCAGCCAAGUCCUAAGUCAACAGAUCUUCUGUUGAUAUGGAUGCAGUUCACAGACUAAAUGUCGGUCGGGGAAGAUGUAUUCUUCUCAUAAGAUAUAGUCGGACCUCUCCUUAAUGGGAGCUAGCGGAUGAAGUGAUGCAACACUGGAGCCGCUGGGAACUAAUUUGUAUGCGAAAGUAUAUUGAUUAGUUUUGGAGUACUCGUGGUCG
The essentials: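 A randomised library covering all eight P1ex-region intron nucleotides was built with the intron in the knt kanamycin-resistance gene on pET-22b(+) and held in E. coli BL21(DE3). Cells were grown overnight at 37°C or 30°C on LB agar, with or without 25 μg/mL kanamycin, plus 100 μg/mL carbenicillin, 50 μM IPTG and 0.2% rhamnose, and pooled colonies were amplicon-sequenced on an Illumina HiSeq 2500. DiMSum fitness is the error-weighted combination of wild-type-normalised replicate fold changes, kanamycin versus none.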

On to AGACAGCAAUAUUACGUUUU, for which the “self-splicing fitness (ln)” value is -3 ± 0.13 (30 °C) and -3.77 ± 0.24 (37 °C).
Turning to AGAGAGCAAUAUUACGAUAG, the “self-splicing fitness (ln)” value (37 °C) is -0.994 ± 0.49.
As for AGAGAGCAAUAUUACGAUCA, the “self-splicing fitness (ln)” value reads like this: (30 °C) -1.93 ± 0.16; (37 °C) -1.44 ± 0.17.
For the sequence AGAGAGCAAUAUUACGAUGU, the “self-splicing fitness (ln)” value was -2.52 ± 0.41 (30 °C) and -2.69 ± 0.36 (37 °C).
The matching figures for AGAGAGCAAUAUUACGCAAU: -3.58 ± 0.43 and -2.48 ± 0.29.
AGAGAGCAAUAUUACGCACC: the “self-splicing fitness (ln)” value (30 °C) is 0.805 ± 0.35.
With AGAGAGCAAUAUUACGCAUA, the “self-splicing fitness (ln)” value runs as follows: (30 °C) -3.84 ± 0.39; (37 °C) -2.96 ± 0.47.
Taken in the same sequence, the figures for AGAGAGCAAUAUUACGCAUU were -3.41 ± 0.18 and -2.35 ± 0.15.
On to AGAGAGCAAUAUUACGCGAU, for which the “self-splicing fitness (ln)” value (37 °C) was -2.82 ± 0.43.
With AGAGAGCAAUAUUACGCUCA, the “self-splicing fitness (ln)” value (30 °C) was -2.44 ± 0.27 and the “self-splicing fitness (ln)” value (37 °C) is -1.11 ± 0.21.
The matching figures for AGAGAGCAAUAUUACGCUGA: -2.75 ± 0.18 and -2.94 ± 0.28.
Taken in the same sequence, the figures for AGAGAGCAAUAUUACGGACU were -0.413 ± 0.12 and -0.495 ± 0.17.
The matching figures for AGAGAGCAAUAUUACGGCCG: -3.41 ± 0.36 and -1.39 ± 0.28.
For AGAGAGCAAUAUUACGGGUC, the “self-splicing fitness (ln)” value (37 °C) was -3.11 ± 0.48.
In the case of AGAGAGCAAUAUUACGGUAA, the “self-splicing fitness (ln)” value is -2.95 ± 0.31 (30 °C) and -2.28 ± 0.33 (37 °C).
Consider AGAGAGCAAUAUUACGGUAU, for which the “self-splicing fitness (ln)” value was -3.91 ± 0.37 (30 °C) and -3.55 ± 0.29 (37 °C).
Consider AGAGAGCAAUAUUACGGUGA, for which, where the note is “30 °C”, the “self-splicing fitness (ln)” value is -3.54 ± 0.38.
As for AGAGAGCAAUAUUACGGUUA, the “self-splicing fitness (ln)” value by setting is: (30 °C) -3.1 ± 0.25; (37 °C) -1.83 ± 0.21.
As to AGAGAGCAAUAUUACGUAGC, the “self-splicing fitness (ln)” value by setting is: (30 °C) -4.09 ± 0.3; (37 °C) -3.62 ± 0.46.
Take AGAGAGCAAUAUUACGUCAA: the “self-splicing fitness (ln)” value (30 °C) is -2.29 ± 0.5.
With AGAGAGCAAUAUUACGUCUA, the “self-splicing fitness (ln)” value is, setting by setting: (30 °C) -2.48 ± 0.35; (37 °C) -0.494 ± 0.26.
The matching figures for AGAGAGCAAUAUUACGUGAA: -2.82 ± 0.3 and -2.16 ± 0.29.
The matching figures for AGAGAGCAAUAUUACGUGCA: -3.36 ± 0.26 and -2.34 ± 0.24.
In the case of AGAGAGCAAUAUUACGUUAA, the “self-splicing fitness (ln)” value is, setting by setting: (30 °C) -3.32 ± 0.25; (37 °C) -2.36 ± 0.24.
The matching figures for AGAGAGCAAUAUUACGUUAU: -2.61 ± 0.18 and -2.64 ± 0.48.
Consider AGAGAGCAAUAUUACGUUUA, for which the “self-splicing fitness (ln)” value (37 °C) was -2.08 ± 0.33.
Take AGAUAGCAAUAUUACGAAUG: the “self-splicing fitness (ln)” value is -2.62 ± 0.13 (30 °C) and -1.32 ± 0.11 (37 °C).
Taken in the same sequence, the figures for AGAUAGCAAUAUUACGCAGC were -2.44 ± 0.22 and -1.43 ± 0.4.
Taken in the same sequence, the figures for AGAUAGCAAUAUUACGCCCG were -0.427 ± 0.23 and -0.478 ± 0.24.
The matching figures for AGAUAGCAAUAUUACGCCGU: -0.974 ± 0.11 and -0.953 ± 0.12.
Take AGAUAGCAAUAUUACGCGAC: the “self-splicing fitness (ln)” value runs as follows: (30 °C) -2.67 ± 0.29; (37 °C) -1.21 ± 0.39.
Turning to AGAUAGCAAUAUUACGGUCA, the “self-splicing fitness (ln)” value was -0.325 ± 0.08 (30 °C) and 0.317 ± 0.11 (37 °C).
The matching figures for AGAUAGCAAUAUUACGGUGA: -1.9 ± 0.2 and -0.858 ± 0.17.
The matching figures for AGAUAGCAAUAUUACGGUUA: -0.766 ± 0.11 and -0.936 ± 0.1.
The matching figures for AGAUAGCAAUAUUACGUCCU: 0.545 ± 0.095 and 0.159 ± 0.1.
In the case of AGAUAGCAAUAUUACGUGGU, the “self-splicing fitness (ln)” value (30 °C) is -3.03 ± 0.11 and the “self-splicing fitness (ln)” value (37 °C) is -2.27 ± 0.15.
The matching figures for AGAUAGCAAUAUUACGUUUG: -3.06 ± 0.23 and -1.21 ± 0.17.
Taken in the same sequence, the figures for AGCAAGCAAUAUUACGAACU were -0.731 ± 0.12 and -0.593 ± 0.14.
Taken in the same sequence, the figures for AGCAAGCAAUAUUACGAAGG were -4.66 ± 0.36 and -1.54 ± 0.22.
With AGCAAGCAAUAUUACGACUA, the “self-splicing fitness (ln)” value was -0.478 ± 0.11 (30 °C) and -0.326 ± 0.13 (37 °C).
Taken in the same sequence, the figures for AGCAAGCAAUAUUACGAUGC were -2.08 ± 0.11 and -1.71 ± 0.14.
The matching figures for AGCAAGCAAUAUUACGCCCG: -0.279 ± 0.08 and -0.0697 ± 0.11.
The matching figures for AGCAAGCAAUAUUACGCCGG: -3.71 ± 0.37 and -1.81 ± 0.24.
Take AGCAAGCAAUAUUACGCGGC: the “self-splicing fitness (ln)” value was -3.39 ± 0.34 (30 °C) and -1.82 ± 0.19 (37 °C).
The matching figures for AGCAAGCAAUAUUACGCUCU: -3 ± 0.22 and -1.57 ± 0.17.
The matching figures for AGCAAGCAAUAUUACGGCCC: 0.104 ± 0.19 and -0.363 ± 0.28.
The matching figures for AGCAAGCAAUAUUACGGCGA: -0.386 ± 0.094 and -0.039 ± 0.11.
As to AGCAAGCAAUAUUACGGCGG, the “self-splicing fitness (ln)” value (30 °C) was -1.29 ± 0.083 and the “self-splicing fitness (ln)” value (37 °C) was found to be 0.133 ± 0.11.
Taken in the same sequence, the figures for AGCAAGCAAUAUUACGGUGU were -2.65 ± 0.13 and -0.608 ± 0.1.
Consider AGCAAGCAAUAUUACGUACG, for which the “self-splicing fitness (ln)” value was -1.99 ± 0.13 (30 °C) and -0.695 ± 0.11 (37 °C).
Regarding AGCAAGCAAUAUUACGUACU, the “self-splicing fitness (ln)” value is -0.47 ± 0.057 (30 °C) and -0.368 ± 0.075 (37 °C).
Taken in the same sequence, the figures for AGCAAGCAAUAUUACGUAUU were -3.02 ± 0.14 and -1.24 ± 0.11.
Consider AGCAAGCAAUAUUACGUCUA, for which the “self-splicing fitness (ln)” value is -0.673 ± 0.062 (30 °C) and -0.456 ± 0.08 (37 °C).
With AGCAAGCAAUAUUACGUCUC, the “self-splicing fitness (ln)” value (30 °C) is -2.61 ± 0.29.
Regarding AGCAAGCAAUAUUACGUGGG, the “self-splicing fitness (ln)” value (30 °C) is -3.44 ± 0.12 and the “self-splicing fitness (ln)” value (37 °C) is -2.37 ± 0.16.
Consider AGCCAGCAAUAUUACGAACA, for which the “self-splicing fitness (ln)” value (30 °C) was -2.8 ± 0.24 and the “self-splicing fitness (ln)” value (37 °C) is -1.98 ± 0.33.
For the sequence AGCCAGCAAUAUUACGAAUC, for the setting “37 °C”, the “self-splicing fitness (ln)” value is -1.94 ± 0.39.
AGCCAGCAAUAUUACGAGAA: the “self-splicing fitness (ln)” value is, setting by setting: (30 °C) -2.99 ± 0.36; (37 °C) -1.42 ± 0.3.
On to AGCCAGCAAUAUUACGAGAC, for which the “self-splicing fitness (ln)” value was -3.57 ± 0.18 (30 °C) and -2.61 ± 0.16 (37 °C).
Take AGCCAGCAAUAUUACGAGGC: the “self-splicing fitness (ln)” value is, setting by setting: (30 °C) -3.6 ± 0.2; (37 °C) -2.02 ± 0.19.
Taken in the same sequence, the figures for AGCCAGCAAUAUUACGAGGG were -2.58 ± 0.15 and -2.38 ± 0.17.
As to AGCCAGCAAUAUUACGAUAA, the “self-splicing fitness (ln)” value runs as follows: (30 °C) -4.66 ± 0.46; (37 °C) -2.89 ± 0.17.
The matching figures for AGCCAGCAAUAUUACGAUAU: -3.25 ± 0.16 and -1.83 ± 0.14.
